Target: SH3 domain of Src (residues 83–141) with C-terminal FLAG-tag (chicken, UniProt P00523 83-141)
Test: bimane fluorescence

B1: βarr1-MC-393 V70C labeled with monobromobimane (domain or fragment, rat, UniProt P29066 1-393, looked up)
chain: MGDKGTRVFKKASPNGKLTVYLGKRDFVDHIDLVDPVDGVVLVDPEYLKERRVYVTLTAAFRYGREDLDCLGLTFRKDLFVANVQSFPPAPEDKKPLTRLQERLIKKLGEHAYPFTFEIPPNLPSSVTLQPGPEDTGKAIGVDYEVKAFVAENLEEKIHKRNSVRLVIRKVQYAPERPGPQPTAETTRQFLMSDKPLHLEASLDKEIYYHGEPISVNVHVTNNTNKTVKKIKISVRQYADIVLFNTAQYKVPVAMEEADDTVAPSSTFSKVYTLTPFLANNREKRGLALDGKLKHEDTNLASSTLLREGANREILGIIVSYKVKVKLVVSRGGLLGDLASSDVAVELPFTLMHPKPKEEPPHREVPESETPVDTNLIELDTNDDDIVFEDFAR
modifications: monobromobimane (mBr) on C70
B1: binds.
